# Measured values: patent publication US20260062488A1
# Where “and” joins values, the source holds several entries; their conditions need not be identical. Equal entries are not always repeated. Where two headings read alike, the source gives them in different places.
# Assays:
# [1] = molecular target: cynomolgus α4β7 integrin (cynomolgus monkey); assay: FACS, cyno CD4+ naïve
# [2] = molecular target: cynomolgus α4β7 integrin (cynomolgus monkey); assay: FACS, cyno CD4+ total
# [3] = molecular target: cynomolgus α4β7 integrin (cynomolgus monkey); assay: FACS, cyno CD8+ naïve
# [4] = molecular target: cynomolgus α4β7 integrin (cynomolgus monkey); assay: FACS, cyno CD8+ total
# [5] = molecular target: cynomolgus α4β7 integrin (cynomolgus monkey); assay: FACS, cyno CD8+ memory
# [6] = molecular target: human α4β7 integrin (human) (UniProt P13612); assay: FACS, human CD4+ naïve
# [7] = molecular target: human α4β7 integrin (human) (UniProt P13612); assay: FACS, human CD4+ total
# [8] = molecular target: human α4β7 integrin (human) (UniProt P13612); assay: FACS, human CD8+ naïve
# [9] = molecular target: human α4β7 integrin (human) (UniProt P13612); assay: FACS, human CD8+ total
# [10] = molecular target: human α4β7 integrin (human) (UniProt P13612); assay: flow cytometry, HuT78 cells
# [11] = molecular target: human α4β7 integrin (human) (UniProt P13612); assay: FACS titration on BaF3-hα4β7
# [12] = molecular target: human α4β7 integrin (human) (UniProt P13612); assay: binding to human lymphocytes
# [13] = molecular target: human α4β7 integrin (human) (UniProt P13612); assay: ELISA on coated α4β7+GFP+VLPs
# [14] = molecular target: cynomolgus αEβ7 integrin (cynomolgus monkey); assay: FACS, 1 µg/ml, BaF3-cαEβ7 cells
# [15] = molecular target: human α4β7 integrin (human) (UniProt P13612); assay: FACS, 1 µg/ml, BaF3-hα4β7 cells
# [16] = molecular target: human αEβ7 integrin (human) (UniProt P38570); assay: FACS, 1 µg/ml, BaF3-hαEβ7 cells
# [17] = molecular target: cynomolgus αEβ7 integrin (cynomolgus monkey); assay: FACS, 1 µg/ml, BaF3-cαEβ7 cells; remark: listed apart in the source
# [18] = molecular target: human α4β7 integrin (human) (UniProt P13612); assay: FACS, 1 µg/ml, BaF3-hα4β7 cells; remark: listed apart in the source
# [19] = molecular target: human αEβ7 integrin (human) (UniProt P38570); assay: FACS, 1 µg/ml, BaF3-hαEβ7 cells; remark: listed apart in the source
# [20] = molecular target: cynomolgus α4β7 integrin (cynomolgus monkey); assay: FACS, 1 µg/ml, CHOK1-cα4β7 cells
# [21] = molecular target: human α4β1 integrin (human) (UniProt P05556); assay: FACS, 1 µg/ml, CHOK1-hα4β1 cells
# [22] = molecular target: mouse α4β7 integrin (mouse) (UniProt Q00651); assay: FACS, 1 µg/ml, CHOK1-mα4β7 cells
# mouse α4β7 integrin (mouse), sequence (Q00651 41-1039, chain 1 of 2): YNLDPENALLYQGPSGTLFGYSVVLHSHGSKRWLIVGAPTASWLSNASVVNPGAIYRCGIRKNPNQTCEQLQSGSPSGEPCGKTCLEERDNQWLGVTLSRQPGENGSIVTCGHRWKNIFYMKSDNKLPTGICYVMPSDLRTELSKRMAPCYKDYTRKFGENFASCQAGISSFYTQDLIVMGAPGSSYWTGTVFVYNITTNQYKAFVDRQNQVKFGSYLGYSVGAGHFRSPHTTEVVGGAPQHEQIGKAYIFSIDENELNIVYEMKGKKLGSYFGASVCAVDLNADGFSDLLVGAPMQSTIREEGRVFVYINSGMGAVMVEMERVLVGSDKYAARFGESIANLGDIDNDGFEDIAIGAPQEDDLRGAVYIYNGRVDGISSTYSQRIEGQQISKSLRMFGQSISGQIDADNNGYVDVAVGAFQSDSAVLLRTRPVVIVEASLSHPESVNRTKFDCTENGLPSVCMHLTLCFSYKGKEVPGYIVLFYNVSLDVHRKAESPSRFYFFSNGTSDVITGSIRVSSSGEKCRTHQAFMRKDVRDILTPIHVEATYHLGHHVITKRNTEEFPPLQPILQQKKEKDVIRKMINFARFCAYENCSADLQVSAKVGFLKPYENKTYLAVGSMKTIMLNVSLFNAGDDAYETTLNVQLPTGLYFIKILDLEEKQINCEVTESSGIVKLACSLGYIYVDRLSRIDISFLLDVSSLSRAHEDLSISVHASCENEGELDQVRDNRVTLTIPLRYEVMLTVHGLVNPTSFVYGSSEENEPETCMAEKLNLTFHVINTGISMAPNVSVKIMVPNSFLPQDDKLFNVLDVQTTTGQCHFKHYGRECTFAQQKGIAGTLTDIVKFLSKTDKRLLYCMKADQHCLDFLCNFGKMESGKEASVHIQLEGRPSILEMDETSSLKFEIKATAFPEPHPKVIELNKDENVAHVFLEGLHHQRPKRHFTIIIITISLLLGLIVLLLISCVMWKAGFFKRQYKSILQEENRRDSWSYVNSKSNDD
# mouse α4β7 integrin (mouse), sequence (P26011 20-806, chain 2 of 2, further chain): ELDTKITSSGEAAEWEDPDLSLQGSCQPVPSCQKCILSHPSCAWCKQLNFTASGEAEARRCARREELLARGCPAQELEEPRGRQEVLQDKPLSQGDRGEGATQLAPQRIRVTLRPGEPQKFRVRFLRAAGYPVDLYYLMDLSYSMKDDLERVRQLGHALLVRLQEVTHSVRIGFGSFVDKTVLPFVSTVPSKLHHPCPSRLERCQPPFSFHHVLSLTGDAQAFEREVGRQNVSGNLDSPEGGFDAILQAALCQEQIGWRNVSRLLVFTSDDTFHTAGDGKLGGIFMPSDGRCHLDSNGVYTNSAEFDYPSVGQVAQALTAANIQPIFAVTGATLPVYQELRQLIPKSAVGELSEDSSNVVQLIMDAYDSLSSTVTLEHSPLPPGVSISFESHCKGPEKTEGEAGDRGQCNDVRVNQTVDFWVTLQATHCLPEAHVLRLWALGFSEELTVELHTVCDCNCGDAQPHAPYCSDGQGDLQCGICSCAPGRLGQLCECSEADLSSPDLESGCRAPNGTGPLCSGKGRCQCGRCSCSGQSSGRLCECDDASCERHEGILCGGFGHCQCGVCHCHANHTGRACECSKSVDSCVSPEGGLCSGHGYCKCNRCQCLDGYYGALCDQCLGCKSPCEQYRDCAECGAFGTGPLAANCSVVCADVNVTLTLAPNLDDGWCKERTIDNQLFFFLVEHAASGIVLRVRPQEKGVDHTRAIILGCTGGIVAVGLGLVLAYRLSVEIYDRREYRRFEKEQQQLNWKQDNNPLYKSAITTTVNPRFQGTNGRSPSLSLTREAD
# [23] = molecular target: cynomolgus α4β7 integrin (cynomolgus monkey); assay: FACS, 1 µg/ml, CHOK1-cα4β7 cells; remark: listed apart in the source
# [24] = molecular target: human α4β1 integrin (human) (UniProt P05556); assay: FACS, 1 µg/ml, CHOK1-hα4β1 cells; remark: listed apart in the source
# [25] = molecular target: human α4β7 integrin (human) (UniProt P13612); assay: FACS, primary human CD4+ memory T cells
# [26] = molecular target: human α4β7 integrin (human) (UniProt P13612); assay: blockade of HuT78 cell adhesion to MAdCAM-1
# [27] = molecular target: human α4β7 integrin (human) (UniProt P13612); assay: blockade of HuT78 cell adhesion to MAdCAM-1; remark: listed apart in the source
# [28] = molecular target: cynomolgus α4β7 integrin (cynomolgus monkey); assay: blockade of CHOK1/cα4β7 adhesion to MAdCAM-1
# [29] = molecular target: cynomolgus α4β7 integrin (cynomolgus monkey); assay: blockade of CHOK1-cα4β7 cell adhesion to MAdCAM-1
# [30] = molecular target: cynomolgus α4β7 integrin (cynomolgus monkey); assay: blockade of CHOK1-cα4β7 cell adhesion to MAdCAM-1; remark: listed apart in the source
# [31] = molecular target: human α4β7 integrin (human) (UniProt P13612); assay: blockade of MAdCAM-1 mediated HuT78 cell adhesion
# [32] = molecular target: human α4β7 integrin (human) (UniProt P13612); assay: virion capture, Protein G plate, HIV BCF06, p24 gag
# [33] = molecular target: human α4β7 integrin (human) (UniProt P13612); assay: virion capture, Protein G plate, HIV CMU08, p24 gag
# [34] = molecular target: human α4β7 integrin (human) (UniProt P13612); assay: virion capture, Protein G plate, HIV NL4-3, p24 gag
# [35] = molecular target: human α4β7 integrin (human) (UniProt P13612); assay: virion capture, Protein G plate, HIV RU570, p24 gag
# [36] = molecular target: human α4β7 integrin (human) (UniProt P13612); assay: virion capture, Protein G plate, HIV YBF30, p24 gag
# [37] = molecular target: human α4β7 integrin (human) (UniProt P13612); assay: HuT78 cells, FACS-based blockade of MAdCAM-1 binding
# [38] = molecular target: human α4β7 integrin (human) (UniProt P13612); assay: competitive FACS, 50x excess of non-labelled competitor Ab-m1
# [39] = molecular target: human α4β7 integrin (human) (UniProt P13612); assay: competitive FACS, 50x excess of non-labelled competitor Ab-Abri
# [40] = molecular target: human α4β7 integrin (human) (UniProt P13612); assay: competitive FACS, 50x excess of non-labelled competitor Ab-Etro
# [41] = molecular target: human α4β7 integrin (human) (UniProt P13612); assay: competitive FACS, 50x excess of non-labelled competitor Ab-Vedo
# [42] = molecular target: human α4β7 integrin (human) (UniProt P13612); assay: blockade of RPMI 8866 cell binding to immobilised gp120-V2 WT peptide
# [43] = molecular target: human α4β7 integrin (human) (UniProt P13612); assay: human lymphocytes, printed as plate-based cell adhesion blockade to MAdCAM-1
# [44] = molecular target: human α4β7 integrin (human) (UniProt P13612); assay: row IC50 (pM) HuT78 of the binning table (assay not explained, presumably adhesion to MAdCAM-1)
# [45] = molecular target: human α4β7 integrin (human) (UniProt P13612); assay: ELISA on plates coated with α4β7+GFP+VLPs; table drawn under the plot, without unit: unit from the axis '[Ab] (nM)'; the text prints the rounded 0.058 nM
# [46] = molecular target: human α4β7 integrin (human) (UniProt P13612); assay: blockade of HuT78 cell adhesion to plate-bound MAdCAM-1, representative experiment; the two IC50 lines under the plot bear no name: the higher one is given to Ab-Vedo, whose curve lies right of Ab-m1's (midpoint near log -1.8 ug/ml)
# [47] = molecular target: cynomolgus α4β7 integrin (cynomolgus monkey); assay: blockade of CHOK1-cα4β7 cell adhesion to MAdCAM-1, representative experiment; the two IC50 lines under the plot bear no name: the higher one is given to Ab-Vedo, whose curve lies clearly right of Ab-m1's (midpoint near log -0.9 ug/ml)
# [48] = molecular target: human α4β7 integrin (human) (UniProt P13612); assay: cell-based or functional assay
# Ab-Vedo (antibody), sequence (VH): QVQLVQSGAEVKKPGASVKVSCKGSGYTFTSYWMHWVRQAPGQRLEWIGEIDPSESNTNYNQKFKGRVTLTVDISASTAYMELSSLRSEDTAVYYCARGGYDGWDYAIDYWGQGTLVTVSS
# Ab-Vedo (antibody), sequence (VL): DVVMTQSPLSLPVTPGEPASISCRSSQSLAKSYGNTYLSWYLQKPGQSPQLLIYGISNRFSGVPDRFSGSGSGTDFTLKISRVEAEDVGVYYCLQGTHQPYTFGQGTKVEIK
substance,measurement,setting,value
Ab-Vedo (antibody),EC50,[1],228 pM
same,EC50,[2],202 pM
same,EC50,[3],256 pM
same,EC50,[4],199 pM
same,EC50,[5],204 pM
same,EC50,[6],381 pM
same,EC50,[7],381 pM
same,EC50,[8],727 pM
same,EC50,[9],658 pM
same,EC50,[10],911 pM
same,EC50,[11],713 pM
same,Max MFI,[11],848 MFI
same,EC50,[12],502 pM
same,EC50,[13],58 pM
same,FACS MFI,[14],57.2 MFI
same,FACS MFI,[15],707 MFI
same,FACS MFI,[16],11.6 MFI
same,FACS MFI,[17],60.9 MFI
same,FACS MFI,[18],153 MFI
same,FACS MFI,[19],19.5 MFI
same,FACS MFI,[20],101 MFI
same,FACS MFI,[21],4.23 MFI
same,FACS MFI,[22],2.91 MFI
same,FACS MFI,[23],46.5 MFI
same,FACS MFI,[24],2.87 MFI
same,EC50,[25],43.2 pM
same,IC50,[26],94.9 pM
same,Max inhibition (%),[26],86.5%
same,IC50,[27],57.4 pM
same,Max inhibition (%),[27],94.7%
same,IC50,[28],120 pM
same,IC50,[29],562 pM
same,Max inhibition (%),[29],76%
same,IC50,[30],541 pM
same,Max inhibition (%),[30],94.4%
same,IC50,[31],31 pM and 60 pM
same,EC50,[32],0.37 nM and 0.056 µg/mL
same,EC50,[33],0.5 nM and 0.075 µg/mL
same,EC50,[34],0.34 nM and 0.05 µg/mL
same,EC50,[35],0.32 nM and 0.048 µg/mL
same,EC50,[36],0.48 nM and 0.072 µg/mL
same,IC50,[37],193 pM
same,percentage of binding inhibition,[38],76%
same,percentage of binding inhibition,[39],89%
same,percentage of binding inhibition,[40],18%
same,percentage of binding inhibition,[41],88%
same,IC50,[42],0.042 µg/mL
same,IC50,[43],630 pM
same,IC50,[44],89 pM
same,EC50,[45],58.1 pM
same,IC50,[46],98.1 pM
same,IC50,[47],822 pM
MAdCAM-1 (R&D systems) (from UniProt Q13477 19-317) (ligand),activated (Ki67+CD25+) human primary CD4+ T cells with plate bound anti-CD3 and MAdCAM-1 (22.6% with anti-CD3 alone),[48],56.6%
